From article PMC13043311, “2′-O-Methyl-guanosine RNA fragments antagonize TLR7 and TLR8 to limit autoimmunity”

Legend:
[1] = target: T1, TLR7 WT (mmTLR7) (Macaca mulatta, UniProt B3Y653 27-839); assay: SPR; control of the nucleoside series; mean computed from runs 1±0.3, 3±0.9, 5±0.8; SPR with recombinant TLR7/TLR8; buffer, pH and temperature not in the material; conditions: protein: recombinant; chain copies: 2; single-stranded
T1 sequence: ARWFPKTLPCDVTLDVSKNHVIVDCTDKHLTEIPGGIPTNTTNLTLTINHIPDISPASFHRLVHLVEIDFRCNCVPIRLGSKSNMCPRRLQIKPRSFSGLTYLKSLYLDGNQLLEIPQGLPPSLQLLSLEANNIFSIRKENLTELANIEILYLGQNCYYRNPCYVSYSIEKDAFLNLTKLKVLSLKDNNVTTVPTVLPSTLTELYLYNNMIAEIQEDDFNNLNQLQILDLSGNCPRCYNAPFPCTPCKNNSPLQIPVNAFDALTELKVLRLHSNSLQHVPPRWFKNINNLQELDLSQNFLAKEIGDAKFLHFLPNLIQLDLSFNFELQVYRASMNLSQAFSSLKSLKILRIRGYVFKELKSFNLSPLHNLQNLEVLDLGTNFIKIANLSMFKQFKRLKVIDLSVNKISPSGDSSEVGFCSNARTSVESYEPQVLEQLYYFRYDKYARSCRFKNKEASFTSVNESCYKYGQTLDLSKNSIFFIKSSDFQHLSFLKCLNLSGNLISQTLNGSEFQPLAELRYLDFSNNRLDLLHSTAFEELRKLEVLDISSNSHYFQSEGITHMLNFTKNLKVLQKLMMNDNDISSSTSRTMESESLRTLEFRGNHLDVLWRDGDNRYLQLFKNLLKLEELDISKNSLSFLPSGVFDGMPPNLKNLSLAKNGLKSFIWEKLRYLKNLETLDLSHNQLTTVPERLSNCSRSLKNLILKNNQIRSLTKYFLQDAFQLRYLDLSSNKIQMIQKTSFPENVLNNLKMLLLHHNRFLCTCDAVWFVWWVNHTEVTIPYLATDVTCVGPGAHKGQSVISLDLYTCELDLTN

[2] = target: T2, TLR7 S530A (Macaca mulatta, UniProt B3Y653 27-839, S530A); assay: SPR; mean computed from runs 0.1±0.02, 0.2±0.04, 0.2±0.06; SPR with recombinant TLR7/TLR8; buffer, pH and temperature not in the material; conditions: protein: recombinant; chain copies: 2; single-stranded
T2 sequence: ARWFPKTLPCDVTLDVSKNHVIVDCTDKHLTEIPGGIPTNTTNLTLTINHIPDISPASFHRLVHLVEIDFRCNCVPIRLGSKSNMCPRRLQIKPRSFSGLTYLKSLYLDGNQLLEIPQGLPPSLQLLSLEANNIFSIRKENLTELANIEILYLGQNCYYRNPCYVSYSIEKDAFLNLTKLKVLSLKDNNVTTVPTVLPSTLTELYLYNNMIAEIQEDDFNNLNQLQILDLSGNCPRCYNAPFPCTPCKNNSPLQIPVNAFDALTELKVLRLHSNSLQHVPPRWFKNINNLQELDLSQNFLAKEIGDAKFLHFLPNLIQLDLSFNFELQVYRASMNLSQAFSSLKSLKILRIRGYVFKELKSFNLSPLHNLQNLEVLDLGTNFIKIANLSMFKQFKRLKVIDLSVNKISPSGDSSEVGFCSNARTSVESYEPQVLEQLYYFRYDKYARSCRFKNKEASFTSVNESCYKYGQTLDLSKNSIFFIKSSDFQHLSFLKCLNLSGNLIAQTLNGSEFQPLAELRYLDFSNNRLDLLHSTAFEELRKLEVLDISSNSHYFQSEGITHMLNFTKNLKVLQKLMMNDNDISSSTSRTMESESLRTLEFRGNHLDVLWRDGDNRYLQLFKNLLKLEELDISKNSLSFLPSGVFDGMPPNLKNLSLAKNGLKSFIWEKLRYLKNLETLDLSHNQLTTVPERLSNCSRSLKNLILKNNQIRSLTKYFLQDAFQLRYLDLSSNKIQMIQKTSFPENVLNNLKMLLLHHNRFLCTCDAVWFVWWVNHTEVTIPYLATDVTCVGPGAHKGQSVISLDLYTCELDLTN

B1: mGrUrC PS (XNA)
RNA: GUC
modifications: 2'-OMe G1, RNA U2 C3; phosphorothioate linkages
Kd [1]: 3 µM | Kd [2]: 0.17 µM
